According to patent US20140274782A1, “AFFINITY REAGENTS AND METHODS FOR DETECTION, PURIFICATION, AND PROTEOMIC ANALYSIS OF METHYLATED PROTEINS” (The Board of Trustees of the Leland Stanford Junior …, priority 2013, published 2014):

T1: G9a and GLP (Homo sapiens, UniProt Q96KQ7+Q9H9B1)
T1 sequence (Q96KQ7 2-1210 limits assumed): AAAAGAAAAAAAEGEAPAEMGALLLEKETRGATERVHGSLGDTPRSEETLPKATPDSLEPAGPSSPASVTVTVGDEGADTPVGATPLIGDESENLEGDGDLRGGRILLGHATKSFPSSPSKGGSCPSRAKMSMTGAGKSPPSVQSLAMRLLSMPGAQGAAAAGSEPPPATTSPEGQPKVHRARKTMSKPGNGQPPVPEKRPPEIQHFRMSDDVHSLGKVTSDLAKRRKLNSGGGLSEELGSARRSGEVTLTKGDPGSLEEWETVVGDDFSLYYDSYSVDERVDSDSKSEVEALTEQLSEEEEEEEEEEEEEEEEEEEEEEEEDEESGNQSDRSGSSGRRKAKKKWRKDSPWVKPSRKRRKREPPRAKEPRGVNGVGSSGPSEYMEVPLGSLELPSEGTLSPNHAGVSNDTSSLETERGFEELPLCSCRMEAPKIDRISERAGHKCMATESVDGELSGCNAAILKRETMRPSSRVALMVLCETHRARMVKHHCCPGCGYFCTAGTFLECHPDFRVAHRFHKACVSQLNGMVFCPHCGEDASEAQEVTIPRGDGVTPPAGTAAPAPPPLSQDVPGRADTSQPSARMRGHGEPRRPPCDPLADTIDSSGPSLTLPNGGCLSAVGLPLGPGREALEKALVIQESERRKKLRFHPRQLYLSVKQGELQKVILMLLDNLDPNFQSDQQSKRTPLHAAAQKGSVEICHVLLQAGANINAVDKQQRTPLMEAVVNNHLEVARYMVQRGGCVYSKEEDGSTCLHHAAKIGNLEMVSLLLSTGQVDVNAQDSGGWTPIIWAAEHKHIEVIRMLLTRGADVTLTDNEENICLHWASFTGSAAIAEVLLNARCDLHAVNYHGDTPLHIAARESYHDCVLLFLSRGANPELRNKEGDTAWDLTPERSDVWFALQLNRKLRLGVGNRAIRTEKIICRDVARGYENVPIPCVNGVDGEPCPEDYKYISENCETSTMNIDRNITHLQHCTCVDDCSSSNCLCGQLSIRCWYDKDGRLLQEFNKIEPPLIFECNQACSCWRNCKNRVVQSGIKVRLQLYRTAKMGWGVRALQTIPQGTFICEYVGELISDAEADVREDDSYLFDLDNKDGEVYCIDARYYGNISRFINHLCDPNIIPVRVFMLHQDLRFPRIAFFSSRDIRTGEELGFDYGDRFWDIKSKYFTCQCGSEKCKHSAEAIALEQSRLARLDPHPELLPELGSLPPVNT
T1 sequence (Q9H9B1 2-1298 limits assumed): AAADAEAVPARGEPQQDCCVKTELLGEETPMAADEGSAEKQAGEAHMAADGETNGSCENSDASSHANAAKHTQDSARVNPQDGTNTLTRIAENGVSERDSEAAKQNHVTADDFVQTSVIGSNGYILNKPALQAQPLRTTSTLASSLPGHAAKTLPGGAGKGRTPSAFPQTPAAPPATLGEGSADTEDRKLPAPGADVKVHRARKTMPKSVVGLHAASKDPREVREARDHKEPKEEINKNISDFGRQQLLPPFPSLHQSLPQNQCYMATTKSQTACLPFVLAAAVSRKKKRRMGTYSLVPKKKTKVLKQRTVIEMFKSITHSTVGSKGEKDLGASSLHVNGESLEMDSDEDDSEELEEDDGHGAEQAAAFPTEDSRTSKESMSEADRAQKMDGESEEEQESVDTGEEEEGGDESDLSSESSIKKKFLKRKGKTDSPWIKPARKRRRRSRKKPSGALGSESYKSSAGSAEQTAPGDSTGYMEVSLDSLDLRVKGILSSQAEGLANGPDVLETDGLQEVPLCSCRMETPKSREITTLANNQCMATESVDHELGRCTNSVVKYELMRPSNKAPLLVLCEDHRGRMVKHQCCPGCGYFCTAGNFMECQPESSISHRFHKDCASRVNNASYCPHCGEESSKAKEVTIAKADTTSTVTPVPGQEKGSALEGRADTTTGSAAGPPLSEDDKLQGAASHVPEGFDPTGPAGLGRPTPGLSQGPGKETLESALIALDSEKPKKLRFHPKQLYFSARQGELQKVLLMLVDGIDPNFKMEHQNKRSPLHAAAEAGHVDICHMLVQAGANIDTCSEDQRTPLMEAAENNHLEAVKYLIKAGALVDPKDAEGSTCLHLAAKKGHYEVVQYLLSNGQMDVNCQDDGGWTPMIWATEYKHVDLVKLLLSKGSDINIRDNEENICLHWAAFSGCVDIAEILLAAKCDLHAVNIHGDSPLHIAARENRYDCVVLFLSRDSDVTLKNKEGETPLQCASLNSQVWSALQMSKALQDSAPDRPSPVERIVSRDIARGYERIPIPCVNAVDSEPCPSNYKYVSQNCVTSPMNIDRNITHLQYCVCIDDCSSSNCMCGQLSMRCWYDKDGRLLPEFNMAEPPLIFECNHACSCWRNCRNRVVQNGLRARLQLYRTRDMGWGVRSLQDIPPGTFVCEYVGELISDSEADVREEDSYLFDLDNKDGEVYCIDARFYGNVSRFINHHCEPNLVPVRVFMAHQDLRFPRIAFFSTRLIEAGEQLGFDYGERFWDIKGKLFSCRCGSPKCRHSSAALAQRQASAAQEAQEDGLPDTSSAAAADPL

B1: GSR (protein, UniProt P00390 44-522, looked up)
Glutathione reductase, …: MACRQEPQPQGPPPAAGAVASYDYLVIGGGSGGLASARRAAELGARAAVVESHKLGGTCVNVGCVPKKVMWNTAVHSEFMHDHADYGFPSCEGKFNWRVIKEKRDAYVSRLNAIYQNNLTKSHIEIIRGHAAFTSDPKPTIEVSGKKYTAPHILIATGGMPSTPHESQIPGASLGITSDGFFQLEELPGRSVIVGAGYIAVEMAGILSALGSKTSLMIRHDKVLRSFDSMISTNCTEELENAGVEVLKFSQVKEVKKTLSGLEVSMVTAVPGRLPVMTMIPDVDCLLWAIGRVPNTKDLSLNKLGIQTDDKGHIIVDEFQNTNVKGIYAVGDVCGKALLTPVAIAAGRKLAHRLFEYKEDSKLDYNNIPTVVFSHPPIGTVGLTEDEAIHKYGIENVKTYSTSFTPMYHAVTKRKTKCVMKMVCANKEEKVVGIHMQGLGCDEMLQGFAVAVKMGATKADFDNTVAIHPTSSEELVTLR
B2: DEK (protein, UniProt P35659 2-375, looked up)
Protein DEK: SASAPAAEGEGTPTQPASEKEPEMPGPREESEEEEDEDDEEEEEEEKEKSLIVEGKREKKKVERLTMQVSSLQREPFTIAQGKGQKLCEIERIHFFLSKKKTDELRNLHKLLYNRPGTVSSLKKNVGQFSGFPFEKGSVQYKKKEEMLKKFRNAMLKSICEVLDLERSGVNSELVKRILNFLMHPKPSGKPLPKSKKTCSKGSKKERNSSGMARKAKRTKCPEILSDESSSDEDEKKNKEESSDDEDKESEEEPPKKTAKREKPKQKATSKSKKSVKSANVKKADSSTTKKNQNSSKKESESEDSSDDEPLIKKLKKPPTDEELKETIKKLLASANLEEVTMKQICKKVYENYPTYDLTERKDFIKTTVKELIS
B3: PRDX1 (protein, UniProt Q06830 2-199, looked up)
Peroxiredoxin-1: SSGNAKIGHPAPNFKATAVMPDGQFKDISLSDYKGKYVVFFFYPLDFTFVCPTEIIAFSDRAEEFKKLNCQVIGASVDSHFCHLAWVNTPKKQGGLGPMNIPLVSDPKRTIAQDYGVLKADEGISFRGLFIIDDKGILRQITVNDLPVGRSVDETLRLVQAFQFTDKHGEVCPAGWKPGSDTIKPDVQKSKEYFSKQK
B4: HNRNPM (protein, UniProt P52272 2-730, looked up)
Heterogeneous nuclear …: AAGVEAAAEVAATEIKMEEESGAPGVPSGNGAPGPKGEGERPAQNEKRKEKNIKRGGNRFEPYANPTKRYRAFITNIPFDVKWQSLKDLVKEKVGEVTYVELLMDAEGKSRGCAVVEFKMEESMKKAAEVLNKHSLSGRPLKVKEDPDGEHARRAMQKVMATTGGMGMGPGGPGMITIPPSILNNPNIPNEIIHALQAGRLGSTVFVANLDYKVGWKKLKEVFSMAGVVVRADILEDKDGKSRGIGTVTFEQSIEAVQAISMFNGQLLFDRPMHVKMDERALPKGDFFPPERPQQLPHGLGGIGMGLGPGGQPIDANHLNKGIGMGNIGPAGMGMEGIGFGINKMGGMEGPFGGGMENMGRFGSGMNMGRINEILSNALKRGEIIAKQGGGGGGGSVPGIERMGPGIDRLGGAGMERMGAGLGHGMDRVGSEIERMGLVMDRMGSVERMGSGIERMGPLGLDHMASSIERMGQTMERIGSGVERMGAGMGFGLERMAAPIDRVGQTIERMGSGVERMGPAIERMGLSMERMVPAGMGAGLERMGPVMDRMATGLERMGANNLERMGLERMGANSLERMGLERMGANSLERMGPAMGPALGAGIERMGLAMGGGGGASFDRAIEMERGNFGGSFAGSFGGAGGHAPGVARKACQIFVRNLPFDFTWKMLKDKFNECGHVLYADIKMENGKSKGCGVVKFESPEVAERACRMMNGMKLSGREIDVRIDRNA
B5: HPRT1 (protein, UniProt P00492 2-218, looked up)
Hypoxanthine-guanine …: ATRSPGVVISDDEPGYDLDLFCIPNHYAEDLERVFIPHGLIMDRTERLARDVMKEMGGHHIVALCVLKGGYKFFADLLDYIKALNRNSDRSIPMTVDFIRLKSYCNDQSTGDIKVIGGDDLSTLTGKNVLIVEDIIDTGKTMQTLLSLVRQYNPKMVKVASLLVKRTPRSVGYKPDFVGFEIPDKFVVGYALDYNEYFRDLNHVCVISETGKAKYKA

How the values were obtained:
G9a and GLP = target: T1, G9a and GLP; assay: Triple SILAC pull-down after UNC0638 treatment of 293T cells, DMSO/UNC0638 ratio of protein captured by 3×MBT; assay type: cell-based; design: endogenous in cells; host or cells: HEK 293T; details: for Relative to UNC0638 UNC Heavy: UNC0638 in heavy SILAC media; for Relative to UNC0638 UNC Light: UNC0638 in light SILAC media; for Relative to UNC0638 Average: average of UNC Light and UNC Heavy experiments;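 for all read-outs here: mass spectrometry (Q-Exactive) SILAC quantitation, DMSO/UNC0638 ratio computed after subtracting 3×MBTD355N mutant pull-down background, only proteins with at least twofold 3×MBT over mutant signal considered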
3×MBT domain of L3MBTL1 = assay: Triple SILAC pull-down, 3xMBT/3xMBTD355N ratio (cytoplasmic, nuclear and chromatin fractions of 293T cells); assay type: binding, human; details: for 3xMBT/D355N UNC Heavy: experiment with UNC0638 in heavy SILAC media; for 3xMBT/D355N UNC Light: experiment with UNC0638 in light SILAC media;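 for all read-outs here: proteins quantified with MaxQuant, requiring at least two unique peptides and quantification in both label directions, normalized to the mean of proteins from a digested loading control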
[1] = SILAC ratio DMSO/UNC0638 of protein pulled down with 3xMBT
[2] = SILAC ratio, pull-down 3xMBT vs 3xMBTD355N
[3] = SILAC ratio DMSO relative to UNC0638, pull-down with 3xMBT, all values in log base 2
[4] = SILAC ratio 3xMBT vs 3xMBTD355N pull-down, 293T cells, all values in log base 2

Molecule | Relative to UNC0638 UNC Heavy (G9a and GLP; [1]) [log base 2] | Relative to UNC0638 UNC Light (G9a and GLP; [1]) [log base 2] | Relative to UNC0638 Average (G9a and GLP) [log base 2] | 3xMBT/D355N UNC Heavy (3×MBT domain of L3MBTL1; [2]) [log base 2] | 3xMBT/D355N UNC Light (3×MBT domain of L3MBTL1; [2]) [log base 2] | Relative to UNC0638 UNC Heavy (G9a and GLP; [3]) [log base 2] | Relative to UNC0638 UNC Light (G9a and GLP; [3]) [log base 2] | Relative to UNC0638 Average (G9a and GLP; all values in log base 2) [log base 2] | 3xMBT/D355N UNC Heavy (3×MBT domain of L3MBTL1; [4]) [log base 2] | 3xMBT/D355N UNC Light (3×MBT domain of L3MBTL1; [4]) [log base 2]
B1 | 0.24 | −0.02 | 0.11 | 2.92 | 2.32 |  |  |  |  | 
B2 |  |  |  |  |  | 0.10 | 0.10 | 0.10 | 2.38 | 2.01
B3 |  |  |  |  |  | 0.17 | 0.04 | 0.10 | 1.65 | 1.98
B4 |  |  |  |  |  | 0.01 | 0.19 | 0.10 | 3.18 | 2.44
B5 |  |  |  |  |  | 0.28 | −0.08 | 0.10 | 2.51 | 1.19
